Test results published in publication PMC9338935, “Structural determinants of DNA recognition by the NO sensor NsrR and related Rrf2-type [FeS]-transcription factors” (Communications Biology, 2022).
Substitutions are numbered along the chain they refer to.

What was measured:
[4Fe-4S]-NsrR (ScNsrR) [1] = biological target: T1, [4Fe-4S]-NsrR (ScNsrR) (Streptomyces coelicolor, UniProt Q9L132 1-148); assay: EMSA; [4Fe-4S] cluster; EMSA: 10 mM Tris, 54 mM KCl, 0.3% glycerol, 1.32 mM GSH, pH 7.5, on ice, ~4 nM DNA, up to ~20-fold molar excess [4Fe-4S] NsrR. Crystal complex: 50 mM Tris pH 8.0, 500 mM NaCl, 5% glycerol, 20 C, anaerobic; grown in PEG, 30 mM MgCl2, 30 mM CaCl2, MOPS/HEPES pH 8.0; conditions: protein: recombinant; chain copies: 2; label: 6-FAM (from PCR primers); blunt
T1 sequence: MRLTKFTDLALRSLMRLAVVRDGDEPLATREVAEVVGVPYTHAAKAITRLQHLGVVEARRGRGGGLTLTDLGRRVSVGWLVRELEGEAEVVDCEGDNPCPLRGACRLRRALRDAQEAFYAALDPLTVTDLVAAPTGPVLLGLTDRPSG

[4Fe-4S]-NsrR (ScNsrR) [2] = biological target: T1, [4Fe-4S]-NsrR (ScNsrR); assay: EMSA; [4Fe-4S] cluster; essentially stoichiometric, no significant difference; EMSA: 10 mM Tris, 54 mM KCl, 0.3% glycerol, 1.32 mM GSH, pH 7.5, on ice, ~4 nM DNA, up to ~20-fold molar excess [4Fe-4S] NsrR. Crystal complex: 50 mM Tris pH 8.0, 500 mM NaCl, 5% glycerol, 20 C, anaerobic; grown in PEG, 30 mM MgCl2, 30 mM CaCl2, MOPS/HEPES pH 8.0; conditions: protein: recombinant; chain copies: 2; label: 6-FAM (from PCR primers); blunt
[4Fe-4S]-NsrR (ScNsrR) [3] = biological target: T1, [4Fe-4S]-NsrR (ScNsrR); assay: EMSA; [4Fe-4S] cluster; no clear difference from wild type; EMSA: 10 mM Tris, 54 mM KCl, 0.3% glycerol, 1.32 mM GSH, pH 7.5, on ice, ~4 nM DNA, up to ~20-fold molar excess [4Fe-4S] NsrR. Crystal complex: 50 mM Tris pH 8.0, 500 mM NaCl, 5% glycerol, 20 C, anaerobic; grown in PEG, 30 mM MgCl2, 30 mM CaCl2, MOPS/HEPES pH 8.0; conditions: protein: recombinant; chain copies: 2; label: 6-FAM (from PCR primers); blunt
[4Fe-4S]-NsrR (ScNsrR) [4] = biological target: T1, [4Fe-4S]-NsrR (ScNsrR); assay: X-ray crystallography; [4Fe-4S] cluster; EMSA: 10 mM Tris, 54 mM KCl, 0.3% glycerol, 1.32 mM GSH, pH 7.5, on ice, ~4 nM DNA, up to ~20-fold molar excess [4Fe-4S] NsrR. Crystal complex: 50 mM Tris pH 8.0, 500 mM NaCl, 5% glycerol, 20 C, anaerobic; grown in PEG, 30 mM MgCl2, 30 mM CaCl2, MOPS/HEPES pH 8.0; conditions: protein: recombinant; chain copies: 2; blunt
[5] = biological target: the molecule itself; assay: crystal structure; [4Fe-4S]-ScNsrR dimer complexed with a 23 bp hmpA1 operator dsDNA fragment; 3.0 Å; crystallised anaerobically; space group P6_(5)

B1: Av003 wild type hmpA1 probe (dsDNA)
DNA 1: CTAAAACGACGGCCAGTCGGGATGACGGGCGGCGGCCCCCTGAGGCCGTCGAGCTGTGGCCTAAAACACGAATATCATCTACCAATTAAGGAGTCGCTGTGCTCTCCGAACAGTCCGTTCCCGTGGTCCGAGCCGTCATAGCTGTTTCCTG
DNA 2: CAGGAAACAGCTATGACGGCTCGGACCACGGGAACGGACTGTTCGGAGAGCACAGCGACTCCTTAATTGGTAGATGATATTCGTGTTTTAGGCCACAGCTCGACGGCCTCAGGGGGCCGCCGCCCGTCATCCCGACTGGCCGTCGTTTTAG
B1: binds ([4Fe-4S]-NsrR (ScNsrR) [1]).

B2: Av007 hmpG/C probe (dsDNA)
DNA 1: B1 DNA 1 with T73C, A74G, T75C, A77G, T78C
DNA 2: B1 DNA 2 with A74G, T75C, A77G, T78C, A79G
B2: binds ([4Fe-4S]-NsrR (ScNsrR) [2]).

B3: Av004 hmpXT1 probe (dsDNA)
DNA 1: B1 DNA 1 with T75A, A77T
DNA 2: B1 DNA 2 with T75A, A77T
B3: binds ([4Fe-4S]-NsrR (ScNsrR) [3]).

B4: Av005 hmpXT2 probe (dsDNA)
DNA 1: B1 DNA 1 with T73A, C79T
DNA 2: B1 DNA 2 with G73A, A79T
B4: binds ([4Fe-4S]-NsrR (ScNsrR) [3]).

B5: Av006 hmpA/T probe (dsDNA)
DNA 1: B1 DNA 1 with C76T, C79T
DNA 2: B1 DNA 2 with G73A, G76A
B5: binds ([4Fe-4S]-NsrR (ScNsrR) [2]).

B6: hmpA1 operator 23 bp (dsDNA)
DNA 1: AACACGAATATCATCTACCAATT
DNA 2: AATTGGTAGATGATATTCGTGTT
B6: binds ([4Fe-4S]-NsrR (ScNsrR) [4]).

B7: [4Fe-4S]-NsrR from Streptomyces coelicolor (natural protein)
chain: T1 sequence
notes: NsrR, NO-sensing Rrf2 family transcription factor of Streptomyces coelicolor; also called ScNsrR; [4Fe-4S]-ScNsrR
For B7, the “stoichiometry N” value [5] was 2.
